*1 amine or outer side, *2 acyl side, *3 side chain or, on linkers, in order; H or OH if unused. Side-chain parts run from the residue outwards. The star is where a group is joined. C18 diacid = O=C(O)CCCCCCCCCCCCCCCCC(=O)*; γGlu = O=C(O)[C@H](CCC(=O)[*:2])N[*:1]; Isovaleryl = CC(C)CC(=O)*; Ahx = NCCCCCC(=O)O

In this assay the target is T1, human NPY2 receptor (human, UniProt P49146 1-381).
T1 construct: whole, on cells; also called hNPY2-R; hNPY2R
T1 sequence (looked up): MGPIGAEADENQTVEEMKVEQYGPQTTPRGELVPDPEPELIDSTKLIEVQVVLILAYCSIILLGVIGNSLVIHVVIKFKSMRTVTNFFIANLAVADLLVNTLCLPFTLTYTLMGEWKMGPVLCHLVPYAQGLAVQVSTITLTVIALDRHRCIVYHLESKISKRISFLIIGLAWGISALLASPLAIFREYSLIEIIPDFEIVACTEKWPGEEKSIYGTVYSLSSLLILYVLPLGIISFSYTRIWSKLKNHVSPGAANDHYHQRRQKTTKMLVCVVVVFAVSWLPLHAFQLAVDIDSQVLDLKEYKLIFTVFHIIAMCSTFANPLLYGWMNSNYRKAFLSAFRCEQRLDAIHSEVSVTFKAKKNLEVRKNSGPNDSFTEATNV
The experiment in a line: RLB: displacement of 125I-PYY(1-36) from hNPY2R membranes. (In a radioligand displacement assay an active substance lowers the binding of a labelled ligand.)

B1: Compound 127 (peptide)
peptide: Isovaleryl-APEK([Ahx-γGlu-C18 diacid])PEAAAEPEELQRYYVALRHYYNWLTRQRY-NH2
SMILES: CC(C)CC(=O)N[C@@H](C)C(=O)N1CCC[C@H]1C(=O)N[C@@H](CCC(=O)O)C(=O)N[C@@H](CCCCNC(=O)CCCCCNC(=O)CC[C@H](NC(=O)CCCCCCCCCCCCCCCCC(=O)O)C(=O)O)C(=O)N1CCC[C@H]1C(=O)N[C@@H](CCC(=O)O)C(=O)N[C@@H](C)C(=O)N[C@@H](C)C(=O)N[C@@H](C)C(=O)N[C@@H](CCC(=O)O)C(=O)N1CCC[C@H]1C(=O)N[C@@H](CCC(=O)O)C(=O)N[C@@H](CCC(=O)O)C(=O)N[C@@H](CC(C)C)C(=O)N[C@@H](CCC(N)=O)C(=O)N[C@@H](CCCNC(=N)N)C(=O)N[C@@H](Cc1ccc(O)cc1)C(=O)N[C@@H](Cc1ccc(O)cc1)C(=O)N[C@H](C(=O)N[C@@H](C)C(=O)N[C@@H](CC(C)C)C(=O)N[C@@H](CCCNC(=N)N)C(=O)N[C@@H](Cc1c[nH]cn1)C(=O)N[C@@H](Cc1ccc(O)cc1)C(=O)N[C@@H](Cc1ccc(O)cc1)C(=O)N[C@@H](CC(N)=O)C(=O)N[C@@H](Cc1c[nH]c2ccccc12)C(=O)N[C@@H](CC(C)C)C(=O)N[C@H](C(=O)N[C@@H](CCCNC(=N)N)C(=O)N[C@@H](CCC(N)=O)C(=O)N[C@@H](CCCNC(=N)N)C(=O)N[C@@H](Cc1ccc(O)cc1)C(N)=O)[C@@H](C)O)C(C)C
As to B1, the affinity corresponds to a Ki of 3.36 nM.

B2: Compound 133 (peptide)
peptide: Isovaleryl-APAK([Ahx-γGlu-C18 diacid])PEEDAEPEELQRYYVSLRHYYNWLTRQRY-NH2
SMILES: CC(C)CC(=O)N[C@@H](C)C(=O)N1CCC[C@H]1C(=O)N[C@@H](C)C(=O)N[C@@H](CCCCNC(=O)CCCCCNC(=O)CC[C@H](NC(=O)CCCCCCCCCCCCCCCCC(=O)O)C(=O)O)C(=O)N1CCC[C@H]1C(=O)N[C@@H](CCC(=O)O)C(=O)N[C@@H](CCC(=O)O)C(=O)N[C@@H](CC(=O)O)C(=O)N[C@@H](C)C(=O)N[C@@H](CCC(=O)O)C(=O)N1CCC[C@H]1C(=O)N[C@@H](CCC(=O)O)C(=O)N[C@@H](CCC(=O)O)C(=O)N[C@@H](CC(C)C)C(=O)N[C@@H](CCC(N)=O)C(=O)N[C@@H](CCCNC(=N)N)C(=O)N[C@@H](Cc1ccc(O)cc1)C(=O)N[C@@H](Cc1ccc(O)cc1)C(=O)N[C@H](C(=O)N[C@@H](CO)C(=O)N[C@@H](CC(C)C)C(=O)N[C@@H](CCCNC(=N)N)C(=O)N[C@@H](Cc1c[nH]cn1)C(=O)N[C@@H](Cc1ccc(O)cc1)C(=O)N[C@@H](Cc1ccc(O)cc1)C(=O)N[C@@H](CC(N)=O)C(=O)N[C@@H](Cc1c[nH]c2ccccc12)C(=O)N[C@@H](CC(C)C)C(=O)N[C@H](C(=O)N[C@@H](CCCNC(=N)N)C(=O)N[C@@H](CCC(N)=O)C(=O)N[C@@H](CCCNC(=N)N)C(=O)N[C@@H](Cc1ccc(O)cc1)C(N)=O)[C@@H](C)O)C(C)C
Turning to B2, the Ki is 4.68 nM.

B3: Compound 131 (peptide)
peptide: Isovaleryl-APEK([Ahx-γGlu-C18 diacid])PEADAEPEEIQRYYVALRHYYNWLTRQRY-NH2
SMILES: CC[C@H](C)[C@H](NC(=O)[C@H](CCC(=O)O)NC(=O)[C@H](CCC(=O)O)NC(=O)[C@@H]1CCCN1C(=O)[C@H](CCC(=O)O)NC(=O)[C@H](C)NC(=O)[C@H](CC(=O)O)NC(=O)[C@H](C)NC(=O)[C@H](CCC(=O)O)NC(=O)[C@@H]1CCCN1C(=O)[C@H](CCCCNC(=O)CCCCCNC(=O)CC[C@H](NC(=O)CCCCCCCCCCCCCCCCC(=O)O)C(=O)O)NC(=O)[C@H](CCC(=O)O)NC(=O)[C@@H]1CCCN1C(=O)[C@H](C)NC(=O)CC(C)C)C(=O)N[C@@H](CCC(N)=O)C(=O)N[C@@H](CCCNC(=N)N)C(=O)N[C@@H](Cc1ccc(O)cc1)C(=O)N[C@@H](Cc1ccc(O)cc1)C(=O)N[C@H](C(=O)N[C@@H](C)C(=O)N[C@@H](CC(C)C)C(=O)N[C@@H](CCCNC(=N)N)C(=O)N[C@@H](Cc1c[nH]cn1)C(=O)N[C@@H](Cc1ccc(O)cc1)C(=O)N[C@@H](Cc1ccc(O)cc1)C(=O)N[C@@H](CC(N)=O)C(=O)N[C@@H](Cc1c[nH]c2ccccc12)C(=O)N[C@@H](CC(C)C)C(=O)N[C@H](C(=O)N[C@@H](CCCNC(=N)N)C(=O)N[C@@H](CCC(N)=O)C(=O)N[C@@H](CCCNC(=N)N)C(=O)N[C@@H](Cc1ccc(O)cc1)C(N)=O)[C@@H](C)O)C(C)C
As for B3, affinity was put at a Ki of 1.54 nM.

B4: Compound 132 (peptide)
peptide: Isovaleryl-APEK([Ahx-γGlu-C18 diacid])PEADATPEELQRYYVSLRHYYNWLTRQRY-NH2
SMILES: CC(C)CC(=O)N[C@@H](C)C(=O)N1CCC[C@H]1C(=O)N[C@@H](CCC(=O)O)C(=O)N[C@@H](CCCCNC(=O)CCCCCNC(=O)CC[C@H](NC(=O)CCCCCCCCCCCCCCCCC(=O)O)C(=O)O)C(=O)N1CCC[C@H]1C(=O)N[C@@H](CCC(=O)O)C(=O)N[C@@H](C)C(=O)N[C@@H](CC(=O)O)C(=O)N[C@@H](C)C(=O)N[C@H](C(=O)N1CCC[C@H]1C(=O)N[C@@H](CCC(=O)O)C(=O)N[C@@H](CCC(=O)O)C(=O)N[C@@H](CC(C)C)C(=O)N[C@@H](CCC(N)=O)C(=O)N[C@@H](CCCNC(=N)N)C(=O)N[C@@H](Cc1ccc(O)cc1)C(=O)N[C@@H](Cc1ccc(O)cc1)C(=O)N[C@H](C(=O)N[C@@H](CO)C(=O)N[C@@H](CC(C)C)C(=O)N[C@@H](CCCNC(=N)N)C(=O)N[C@@H](Cc1c[nH]cn1)C(=O)N[C@@H](Cc1ccc(O)cc1)C(=O)N[C@@H](Cc1ccc(O)cc1)C(=O)N[C@@H](CC(N)=O)C(=O)N[C@@H](Cc1c[nH]c2ccccc12)C(=O)N[C@@H](CC(C)C)C(=O)N[C@H](C(=O)N[C@@H](CCCNC(=N)N)C(=O)N[C@@H](CCC(N)=O)C(=O)N[C@@H](CCCNC(=N)N)C(=O)N[C@@H](Cc1ccc(O)cc1)C(N)=O)[C@@H](C)O)C(C)C)[C@@H](C)O
Molecule B4 displayed a Ki of 2.75 nM.

B5: Compound 134 (peptide)
peptide: Isovaleryl-APEK([Ahx-γGlu-C18 diacid])PEEDATPEEQQRYYVSLRHYYNWLTRQRY-NH2
SMILES: CC(C)CC(=O)N[C@@H](C)C(=O)N1CCC[C@H]1C(=O)N[C@@H](CCC(=O)O)C(=O)N[C@@H](CCCCNC(=O)CCCCCNC(=O)CC[C@H](NC(=O)CCCCCCCCCCCCCCCCC(=O)O)C(=O)O)C(=O)N1CCC[C@H]1C(=O)N[C@@H](CCC(=O)O)C(=O)N[C@@H](CCC(=O)O)C(=O)N[C@@H](CC(=O)O)C(=O)N[C@@H](C)C(=O)N[C@H](C(=O)N1CCC[C@H]1C(=O)N[C@@H](CCC(=O)O)C(=O)N[C@@H](CCC(=O)O)C(=O)N[C@@H](CCC(N)=O)C(=O)N[C@@H](CCC(N)=O)C(=O)N[C@@H](CCCNC(=N)N)C(=O)N[C@@H](Cc1ccc(O)cc1)C(=O)N[C@@H](Cc1ccc(O)cc1)C(=O)N[C@H](C(=O)N[C@@H](CO)C(=O)N[C@@H](CC(C)C)C(=O)N[C@@H](CCCNC(=N)N)C(=O)N[C@@H](Cc1c[nH]cn1)C(=O)N[C@@H](Cc1ccc(O)cc1)C(=O)N[C@@H](Cc1ccc(O)cc1)C(=O)N[C@@H](CC(N)=O)C(=O)N[C@@H](Cc1c[nH]c2ccccc12)C(=O)N[C@@H](CC(C)C)C(=O)N[C@H](C(=O)N[C@@H](CCCNC(=N)N)C(=O)N[C@@H](CCC(N)=O)C(=O)N[C@@H](CCCNC(=N)N)C(=O)N[C@@H](Cc1ccc(O)cc1)C(N)=O)[C@@H](C)O)C(C)C)[C@@H](C)O
Take B5: the Ki worked out at 2.8 nM.

B6: Compound 130 (peptide)
peptide: Isovaleryl-APEK([Ahx-γGlu-C18 diacid])PEEDATPEELQLYYVSLRHYYNWLTRQRY-NH2
SMILES: CC(C)CC(=O)N[C@@H](C)C(=O)N1CCC[C@H]1C(=O)N[C@@H](CCC(=O)O)C(=O)N[C@@H](CCCCNC(=O)CCCCCNC(=O)CC[C@H](NC(=O)CCCCCCCCCCCCCCCCC(=O)O)C(=O)O)C(=O)N1CCC[C@H]1C(=O)N[C@@H](CCC(=O)O)C(=O)N[C@@H](CCC(=O)O)C(=O)N[C@@H](CC(=O)O)C(=O)N[C@@H](C)C(=O)N[C@H](C(=O)N1CCC[C@H]1C(=O)N[C@@H](CCC(=O)O)C(=O)N[C@@H](CCC(=O)O)C(=O)N[C@@H](CC(C)C)C(=O)N[C@@H](CCC(N)=O)C(=O)N[C@@H](CC(C)C)C(=O)N[C@@H](Cc1ccc(O)cc1)C(=O)N[C@@H](Cc1ccc(O)cc1)C(=O)N[C@H](C(=O)N[C@@H](CO)C(=O)N[C@@H](CC(C)C)C(=O)N[C@@H](CCCNC(=N)N)C(=O)N[C@@H](Cc1c[nH]cn1)C(=O)N[C@@H](Cc1ccc(O)cc1)C(=O)N[C@@H](Cc1ccc(O)cc1)C(=O)N[C@@H](CC(N)=O)C(=O)N[C@@H](Cc1c[nH]c2ccccc12)C(=O)N[C@@H](CC(C)C)C(=O)N[C@H](C(=O)N[C@@H](CCCNC(=N)N)C(=O)N[C@@H](CCC(N)=O)C(=O)N[C@@H](CCCNC(=N)N)C(=O)N[C@@H](Cc1ccc(O)cc1)C(N)=O)[C@@H](C)O)C(C)C)[C@@H](C)O
With B6, the Ki is 9.36 nM.

What is called Ki is the equilibrium dissociation constant of an inhibitor or competing ligand from its target. The low end stands for tighter binding, the high end for weaker binding.

Source of the values: patent US20260015399A1 (Boehringer Ingelheim, published 2026).
